Laboratory results reported in the supplement of paper PMC9170038.

Test system: MS2 coat protein
Experiment: apparent KD of MS2 coat protein; designed switch direction (-1 OFF switch, 1 ON switch): -1; higher = weaker reporter binding
Summary of the method: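 An oligonucleotide input, 200 uM small-molecule ligand, or no input was present during titration of SNAP-549-labelled MS2 coat protein, which was doubled from 0.7 or 1.5 nM to 3 µM. Designed RNA switches had been transcribed on Illumina chips by stalled E. coli RNA polymerase. Apparent KD per design is the median over clusters of curves fitted to normalised cluster fluorescence.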

[1] = Eterna round: R95, input ligand: microRNA oligo, concentration not stated
[2] = input ligand: microRNA oligo, concentration not stated
[3] = Eterna round: R95, input ligand: FMN 200 uM
[4] = Eterna round: R95, input ligand: none

| Sequence | apparent KD of MS2 coat protein [1] [µM] | apparent KD of MS2 coat protein (input ligand: FMN 200 uM) [µM] | apparent KD of MS2 coat protein (input ligand: none) [µM] | other results |
| --- | --- | --- | --- | --- |
| CAGGUUAGAGGAUAUACGUAGGUACAGAUCUGUGUGUUCCUACAUGAGGAUCACCCAUGUAGAAGGCUAUCCUG [LRO-Excl2-09] (puzzle: Exclusion 2) | 0.0619 |  |  |  |
| AUGUGCACGCUGCGGUCCUACAUGAGGAUCACCCAUGUGGUCUGGUGGCGUGGGUCGCCGGACUUGGCUCGUCUUGG [salish99_S_TOV1_R5_031] (Eterna round: R97, puzzle: Sensor, turn-off variant 1) |  | 0.0156 | 0.0159 |  |
| CUUUUGUGAGGAUAUCAGGUGUGCUAGCGUACUGGUACAUCUGAGAAGGCACAUGAGGAUCACCCAUGUUUCUU [JL-ex4-3.19 Brourd mod] (puzzle: Exclusion 4) | 0.0271 |  |  |  |
| AGCUAGAUAGGAUAUGCCCGGGAUAACAUGAGGAUCACCCAUGUGACCGAUUCAUGUCCAGCAGAAGGGUUUGGGA [Mod of ViennaUCT 8 - Jieux - Exclusion 5] (Eterna round: R97, puzzle: Exclusion 5) |  | 0.0171 | 0.0167 |  |
| GGAAGGCGAGGAUAUGCAAUAAUACACUAAUUAAUGUGAAAACAUGAGGAUCACCCAUGUAGAAGGCGCGAGAA [AK-MS2ROC-r4-exclusion2-5] (Eterna round: R97, puzzle: Exclusion 2) |  | 0.0212 | 0.0207 |  |
| UUAAGGAUAGAGGAUAUAUUAAAGAAGGUGGCGAUAGAAGGCUAGACAUGAGGAUCACCCAUGUAAAUUGGGAU [JR_Ex6_Sub068] (Eterna round: R97, puzzle: Exclusion 6) |  | 0.378 | 0.309 |  |
| CAUUAUUAUCGAGGAUAUCCUAUUGAAAUUCUGGGAGAAGGCGGACUCAACAUGAGGAUCACCCAUGUGGGACGGAUGCUAGGC [salish99_exng1_r04_601] (Eterna round: R96, puzzle: Exclusion NG 1) |  | 0.0142 | 0.0193 | apparent KD of MS2 coat protein [2]: 0.0156 µM |
| GAUUAUGCGAGCUUUAGGGACAUGAGGAUCACCCAUGUUCGUCUUAUUAGUCUGAAUACACUGACAUACCUAAAUCU [JMF 55] (puzzle: Sensor v3, turn-off variant 1) | 0.0195 |  |  | apparent KD of MS2 coat protein [3]: 0.0148 µM; apparent KD of MS2 coat protein [4]: 0.0178 µM |
| AAUAAUAAGGAGGAUAUCGUAUGCGAAAGCAUACGAGAAGGCCUAACAUGAGGAUCACCCAUGUUCCUCAAUAA [Mat - Exclusion 6 - Eli Mod - D55] (puzzle: Exclusion 6) | 0.254 |  |  | apparent KD of MS2 coat protein [3]: 0.659 µM; apparent KD of MS2 coat protein [4]: 0.259 µM |
| GCAUGCUUUUUGCUCGUUUACAUGAGGAUCACCCAUGUACAUGGGUGAGCCGCAUGUACAGAAAGGAAAACUUUUUG [Alacar Attempt 2] (Eterna round: R97, puzzle: Sensor, turn-off variant 1) |  | 0.0211 | 0.0247 |  |
| AUUAUUUAAGUCAGGAUAUCGUAUUUAUUUAAAUACGAGAAGGGACAUGAGGAUCACCCAUGUAAUAAAUUUUA [JMFs Solution 2] (puzzle: Brourd's mod of Exclusion 4) | 0.0166 |  |  |  |
| UAAGAAUGCAAGGAUAUGGCUAGGUAAAACAUGUCAGAAGGUGCUACAUGAGGAUCACCCAUGUGUCUCGUGCG [Eternabot (L1) Solution 2] (Eterna round: R97, puzzle: Exclusion 6) |  | 0.0758 | 0.0643 |  |
| CUCGUGUCGGAGGAUAUCCAGCGCGAAAAUAAAGGAGAAGGCCGCACAUGAGGAUCACCCAUGUAACAUGGUCC [Onbier] (puzzle: Exclusion 6) | 0.0448 |  |  |  |
| CUGUACAUAGGAUAUAGUUGUUUUUACAUGAGGAUCACCCAUGUUACUCCUCUCUCUCUUCUAGAAGGAUGUUUUU [JR_E5_Sub007] (puzzle: Exclusion 5) | 0.0781 |  |  |  |
| GUUUAGUGAGGAUAUGUGGCUUCGAUCGUGCGCGGUCUGCUACAGAAGGCACAUGAGGAUCACCCAUGUUCCUC [salish99_ex4_r4_308] (Eterna round: R97, puzzle: Exclusion 4) |  | 0.579 | 0.123 |  |
| ACCAUGUUAGGAUAUGCGUGGCAUAGACCGGUCUAUCCGCGGUAGAAGGGACAUGAGGAUCACCCAUGUGCGAG [Eternabot (L2) Solution 85] (Eterna round: R97, puzzle: Exclusion 4) |  | 0.0415 | 0.0323 |  |
| UGAGUGCUGCGAGGAUAUACAUGAGGAUCACCCAUGUAAGCCUGUGAGGCUUUGCCUCACAGGAUGUAGAAGGCGCAGUACUCU [JL ENG2 1.17] (Eterna round: R96, puzzle: Exclusion NG 2) |  | 0.0125 | 0.0135 | apparent KD of MS2 coat protein [2]: 0.00919 µM |
| CCAUAAAGGAAGGAUAUGCUAGACGAAAGUCUAGCAGAAGGUCCUACAUGAGGAUCACCCAUGUGGCCUCAUGG [Mat - Exclusion 6 - Eli Mod - D49] (Eterna round: R97, puzzle: Exclusion 6) |  | 0.116 | 0.198 |  |

| Sequence | apparent KD of MS2 coat protein [1] [µM] | apparent KD of MS2 coat protein (input ligand: FMN 200 uM) [µM] | apparent KD of MS2 coat protein (input ligand: none) [µM] | other results |
| --- | --- | --- | --- | --- |
| GCAGCAACUCUAAUUAAAACCACAUGAGGAUCACCCAUGUCUCAGGAUAUGGUCUGGAUUACAGGCCAGAAGGGAGAAAGCUGC [Eli exng3 - 051] (Eterna round: R96, puzzle: Exclusion NG 3) |  | 0.0159 | 0.017 | apparent KD of MS2 coat protein [2]: 0.0149 µM |
| AGCUGUGGCCGAGGAUAUCUGAACUUUCAAACCGAAAUAUAAUCGGACAUGAGGAUCACCCAUGUAGAGAAGGCGGUCUCAGCA [Eli eng2 - 061] (Eterna round: R96, puzzle: Exclusion NG 2) |  |  |  | apparent KD of MS2 coat protein [2]: 0.0105 µM |
| GGGUGCAGGCUGCGGUCCUACAUGAGGAUCACCCAUGUGGUCCGGUGGCGUGGGUCGCCGGACUUGGCUCGUCUUGU [salish99_S_TOV1_R5_014] (Eterna round: R97, puzzle: Sensor, turn-off variant 1) |  | 0.0912 | 0.0993 |  |
| GGUCGUAGACAGGAUAUGCGGCAAAGAAACAAAGCAGAAGGGUCUACUUGAGGAUCACCCAAGUGGGCGGUUAA [Atrele] (Eterna round: R97, puzzle: Exclusion 6) |  | 0.153 | 0.0204 |  |
| GUUAACGAAGAGGAUAUAUGAUAUCAAAGCUUCAUAGAAGGCUUCACAUGAGGAUCACCCAUGUGAUCUUCUUU [jl-ex6-4.09 ViennaUCT mod] (Eterna round: R97, puzzle: Exclusion 6) |  | 0.0442 | 0.0151 |  |
| UAGGUACAUGAGGAUCACCCAUGUGAGGAUAUAGUUGAAGAUUGCGAGAGGUUGAGGACUAGAAGGCACAGUGG [JR_Exclu1_Sub038] (puzzle: Exclusion 1) | 0.0635 |  |  | apparent KD of MS2 coat protein [3]: 0.137 µM; apparent KD of MS2 coat protein [4]: 0.0902 µM |
| AGGUGCCUCUGGAAACAUGAGGAUCACCCAUGUUGAGUUAGCGAGGAUAUCGGUAACCAUUGUUAUGAGAAGGCGCAAACCAGA [Ex NG3 #38] (Eterna round: R96, puzzle: Exclusion NG 3) |  | 0.0607 | 0.0276 | apparent KD of MS2 coat protein [2]: 0.0196 µM |
| UCAUACGUUGAGGAUAUGUCAGUUAGAAUAUUUACAGAAGGCGAUACAUGAGGAUCACCCAUGUUUAUGGGCAU [Ex-6 Malc#5] (puzzle: Exclusion 6) | 0.173 |  |  |  |
| GCACAGGCAGGAUAUACAUGAGGAUCACCCAUGUGACCCUUGAUGUACUCGCGUACACGUAGAAGGGCCUGUGC [Omei Ex3 Model Bachelor's Dilema v41] (Eterna round: R97, puzzle: Exclusion 3) |  | 0.633 | 0.407 |  |
| CGUUCUCGAGUCAGGAUAUCGACUAAUUCCCAAGUCGAGAAGGGACAUGAGGAUCACCCAUGUAAAGAAAAGAA [Ainteedle] (puzzle: Brourd's mod of Exclusion 4) | 0.0301 |  |  | apparent KD of MS2 coat protein [3]: 0.118 µM; apparent KD of MS2 coat protein [4]: 0.0303 µM |
| GGGAUGUCAGGAUAUCCAAAAGUCCGCCAGUACGGCAGACAGGAGAAGGGACAUGAGGAUCACCCAUGUAAAGA [Leinrete] (puzzle: Exclusion 4) | 0.0326 |  |  | apparent KD of MS2 coat protein [3]: 0.089 µM; apparent KD of MS2 coat protein [4]: 0.0383 µM |
| AGCAUGCUAGGAUAUACGAAACAUUAGGGUUCGUCGUAUGAACAUGAGGAUCACCCAUGUAGAAGGAGCGUGCA [Mat - Exclusion 2 - Mod of Hyphema - D95] (puzzle: Exclusion 2) | 0.0179 |  |  |  |
| UGCAGACGAGGAUAUGAUUAAUAAUACAUGAGGAUCACCCAUGUAAUACUGAUCUAUGGAUCAGAAGGUGUCUGCU [E5/6-B3] (Eterna round: R97, puzzle: Exclusion 5) |  | 0.0208 | 0.0241 |  |
| GACCAAUAGGUAGGAUAUCAUUGCGAUUAGCUAUGAGAAGGACCACAUGAGGAUCACCCAUGUCCUCUAAUUAGCCAAUUGGUA [8th something] (Eterna round: R96, puzzle: Exclusion NG 1) |  | 0.426 | 0.0909 | apparent KD of MS2 coat protein [2]: 0.17 µM |
| UUUUUUUGAGUAAGGAUAUGAUGCAGGAAACUGCGUCAGAAGGUACAUGAGGAUCACCCAUGUUAAUUUUGUUU [Explosion 14 - Jieux - Brourd's mod of Exclusion 4] (Eterna round: R97, puzzle: Brourd's mod of Exclusion 4) |  | 0.0184 | 0.0203 |  |
| AGCUAGUCAGGAUAUUCUAAAAAUUACAUGAGGAUCACCCAUGUGAAUGGACAAGGGUGUGAAGAAGGGACUAGCG [Omei Ex5 A11] (Eterna round: R97, puzzle: Exclusion 5) |  | 0.214 | 0.54 |  |
| ACAUGUUAUCCAUGAUAUCACAUGAGGAUCACCCAUGUUAUGGCGAUUUUGAGGUGUAAGUUUGUUGCUCGUCUUAU [JR_STOV1_Sub059] (Eterna round: R97, puzzle: Sensor, turn-off variant 1) |  | 0.0545 | 0.0653 |  |
